From patent US20120308575A1

Assays:
[1] = molecular target: recombinant human TNF-α (Product 210-TA-050, R&D) (human) (UniProt P01375); assay: flow cytometry competition: FITC-TNF-α (100 ng/ml) on U937 cells, antibody titrated; experiment 2
[2] = molecular target: recombinant human TNF-α (Product 210-TA-050, R&D) (human) (UniProt P01375); assay: SPR, Biacore T100, TNFα amine-coupled to CM5 chip, antibody in flow
[3] = molecular target: recombinant human TNF-α (Product 210-TA-050, R&D) (human) (UniProt P01375); assay: cell-based or functional assay
[4] = molecular target: recombinant human TNF-α (Product 210-TA-050, R&D) (human) (UniProt P01375); assay: competition ELISA: biotin-TNF-α (10 ng/ml) on coated P75 receptor-Fc, antibody titrated; average of 3
[5] = molecular target: recombinant human TNF-α (Product 210-TA-050, R&D) (human) (UniProt P01375); assay: flow cytometry competition: FITC-TNF-α (100 ng/ml) on U937 cells, antibody titrated; experiment 1
[6] = molecular target: recombinant human TNF-α (Product 210-TA-050, R&D) (human) (UniProt P01375); assay: competition ELISA: biotin-TNF-α (10 ng/ml) on coated P75 receptor-Fc, antibody titrated; experiment 1
[7] = molecular target: recombinant human TNF-α (Product 210-TA-050, R&D) (human) (UniProt P01375); assay: competition ELISA: biotin-TNF-α (10 ng/ml) on coated P75 receptor-Fc, antibody titrated; experiment 3
[8] = molecular target: recombinant human TNF-α (Product 210-TA-050, R&D) (human) (UniProt P01375); assay: flow cytometry competition: FITC-TNF-α (100 ng/ml) on U937 cells, antibody titrated; average of 3
[9] = molecular target: recombinant human TNF-α (Product 210-TA-050, R&D) (human) (UniProt P01375); assay: competition ELISA: biotin-TNF-α (10 ng/ml) on coated P75 receptor-Fc, antibody titrated; experiment 2
[10] = molecular target: recombinant human TNF-α (Product 210-TA-050, R&D) (human) (UniProt P01375); assay: flow cytometry competition: FITC-TNF-α (100 ng/ml) on U937 cells, antibody titrated; experiment 3

Sequence of recombinant human TNF-α (Product 210-TA-050, R&D) (human) (P01375 77-233 limits assumed): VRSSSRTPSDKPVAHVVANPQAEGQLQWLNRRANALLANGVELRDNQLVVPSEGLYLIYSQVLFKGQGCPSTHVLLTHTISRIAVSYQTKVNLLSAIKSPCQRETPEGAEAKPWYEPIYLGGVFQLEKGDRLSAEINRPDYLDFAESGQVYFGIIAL

fully human antibody adalimumab (Humira, D2E7, commercial product)
IC50 [1]: 8.03 µg/mL
Kd [2]: 0.63 nM
IC50 of resistance to TNF-α-mediated killing of L929 cells (MTS), average [3]: 0.316 µg/mL
IC50 of resistance to TNF-α-mediated killing of L929 cells (MTS), experiment 1 [3]: 0.296 µg/mL
IC50 of resistance to TNF-α-mediated killing of L929 cells (MTS), experiment 2 [3]: 0.335 µg/mL
IC50 of resistance to TNF-α-mediated killing of L929 cells (MTS), experiment 3 [3]: 0.318 µg/mL
Increase in Body Temperature of Rabbits (rhTNF-α 5 µg/kg i.v. mixed with antibody 500 µg/kg; 60 min) [3]: 0 ° C.
Survival Status of Mice (rhTNF-α 1 µg + D-galactosamine 20 mg; antibody 1 µg i.p. 30 min before) [3]: 20%
Survival Status of Mice (rhTNF-α 1 µg + D-galactosamine 20 mg; antibody 2 µg i.p. 30 min before) [3]: 40%
Survival Status of Mice (rhTNF-α 1 µg + D-galactosamine 20 mg; antibody 4 µg i.p. 30 min before) [3]: 40%
Survival Status of Mice (rhTNF-α 1 µg + D-galactosamine 20 mg; antibody 6 µg i.p. 30 min before) [3]: 50%
Survival Status of Mice (rhTNF-α 1 µg + D-galactosamine 20 mg; antibody 8 µg i.p. 30 min before) [3]: 60%
IC50 [4]: 2.35 µg/mL
IC50 [5]: 6.62 µg/mL
IC50 [6]: 2.3 µg/mL
IC50 [7]: 2.59 µg/mL
IC50 [8]: 7.36 µg/mL
IC50 [9]: 2.15 µg/mL
IC50 [10]: 7.44 µg/mL
